# Experimental data published in paper PMC13379236 (2026).
# B1: C-terminal FLAG-tagged WT ZYG11B [human] / Strep-tagged NLRP1, C-terminal fragment generated by 3C cleavage (begins at G131) [human] (parent complex)
# chain 1: PEDQAGAAMEEASPYSLLDICLNFLTTHLEKFCSARQDGTLCLQEPGVFPQEVADRLLRTMAFHGLLNDGTVGIFRGNQMRLKRACIRKAKISAVAFRKAFCHHKLVELDATGVNADITITDIISGLGSNKWIQQNLQCLVLNSLTLSLEDPYERCFSRLSGLRALSITNVLFYNEDLAEVASLPRLESLDISNTSITDITALLACKDRLKSLTMHHLKCLKMTTTQILDVVRELKHLNHLDISDDKQFTSDIALRLLEQKDILPNLVSLDVSGRKHVTDKAVEAFIQQRPSMQFVGLLATDAGYSEFLTGEGHLKVSGEANETQIAEALKRYSERAFFVREALFHLFSLTHVMEKTKPEILKLVVTGMRNHPMNLPVQLAASACVFNLTKQDLAAGMPVRLLADVTHLLLKAMEHFPNHQQLQKNCLLSLCSDRILQDVPFNRFEAAKLVMQWLCNHEDQNMQRMAVAIISILAAKLSTEQTAQLGTELFIVRQLLQIVKQKTNQNSVDTTLKFTLSALWNLTDESPTTCRHFIENQGLELFMRVLESFPTESSIQQKVLGLLNNIAEVQELHSELMWKDFIDHISSLLHSVEVEVSYFAAGIIAHLISRGEQAWTLSRSQRNSLLDDLHSAILKWPTPECEMVAYRSFNPFFPLLGCFTTPGVQLWAVWAMQHVCSKNPSRYCSMLIEEGGLQHLYNIKDHEHTDPHVQQIAVAILDSLEKHIVRHGRPPPCKKQPQARLN
# chain 2: GSERRVLRQLPDTSGRRWREISASLLYQALPSSPDHESPSQESPNAPTSTAVLGSWGSPPQPSLAPREQEAPGTQWPLDETSGIYYTEIREREREKSEKGRPPWAAVVGTPPQAHTSLQPHHHPWEPSVRESLCSTWPWKNEDFNQKFTQLLLLQRPHPRSQDPLVKRSWPDYVEENRGHLIEIRDLFGPGLDTQEPRIVILQGAAGIGKSTLARQVKEAWGRGQLYGDRFQHVFYFSCRELAQSKVVSLAELIGKDGTATPAPIRQILSRPERLLFILDGVDEPGWVLQEPSSELCLHWSQPQPADALLGSLLGKTILPEASFLITARTTALQNLIPSLEQARWVEVLGFSESSRKEYFYRYFTDERQAIRAFRLVKSNKELWALCLVPWVSWLACTCLMQQMKRKEKLTLTSKTTTTLCLHYLAQALQAQPLGPQLRDLCSLAAEGIWQKKTLFSPDDLRKHGLDGAIISTFLKMGILQEHPIPLSYSFIHLCFQEFFAAMSYVLEDEKGRGKHSNCIIDLEKTLEAYGIHGLFGASTTRFLLGLLSDEGEREMENIFHCRLSQGRNLMQWVPSLQLLLQPHSLESLHCLYETRNKTFLTQVMAHFEEMGMCVETDMELLVCTFCIKFSRHVKKLQLIEGRQHRSTWSPTMVVLFRWVPVTDAYWQILFSVLKVTRNLKELDLSGNSLSHSAVKSLCKTLRRPRCLLETLRLAGCGLTAEDCKDLAFGLRANQTLTELDLSFNVLTDAGAKHLCQRLRQPSCKLQRLQLVSCGLTSDCCQDLASVLSASPSLKELDLQQNNLDDVGVRLLCEGLRHPACKLIRLGLDQTTLSDEMRQELRALEQEKPQLLIFSRRKPSVMTPTEGLDTGEMSNSTSSLKRQRLGSERAASHVAQANLKLLDVSKIFPIAEIAEESSPEVVPVELLCVPSPASQGDLHTKPLGTDDDFWGPTGPVATEVVDKEKNLYRVHFPVAGSYRWPNTGLCFVMREAVTVEIEFCVWDQFLGEINPQHSWMVAGPLLDIKAEPGAVEAVHLPHFVALQGGHVDTSLFQMAHFKEEGMLLEKPARVELHHIVLENPSFSPLGVLLKMIHNALRFIPVTSVVLLYHRVHPEEVTFHLYLIPSDCSIRKAIDDLEMKFQFVRIHKPPPLTPLYMGCRYTVSGSGSGMLEILPKELELCYRSPGEDQLFSEFYVGHLGSGIRLQVKDKKDETLVWEALVKPGDLMPATTLIPPARIAVPSPLDAPQLLHFVDQYREQLIARVTSVEVVLDKLHGQVLSQEQYERVLAENTRPSQMRKLFSLSQSWDRKCKDGLYQALKETHPHLIMELWEKGSKKGLLPLSS
# Variants of: B1
# Test: coIP with western blot quantification; HEK293T cells, transfected for 48 h, with 3C protease; read off a plot
row,ratio to parent,Variant
1,~0.85,chain 1 F515A
2,~0.5,chain 1 E643K
3,~0.08,chain 1 N566A
4,~0.94,chain 1 D434K
5,~0.27,chain 1 R465A
6,~0.05,chain 1 E569A
7,~0.05,chain 1 W521A
8,~0.05,chain 1 D525A
9,~0.51,chain 1 Y684A
10,~1.1,chain 1 K514E
